From paper PMC9124243
Read-outs that look alike come from different tables or passages of the source.

Columns and labels:
[1] = molecular target: Mycobacterium tuberculosis DnaK, wild-type, full-length (M. tuberculosis) (UniProt P9WMJ9)
[2] = molecular target: Mycobacterium tuberculosis DnaK, wild-type, full-length (M. tuberculosis) (UniProt P9WMJ9); remark: listed apart in the source

Substance	IC50 in DnaK-DnaJ2-GrpE ATPase dose-response assay [1] [µM]	IC50 in DnaK-DnaJ2-GrpE ATPase dose-response assay [2] [µM]
Pz-Val-Val-Pro-photoLeu-OMe (7) (peptide)	52.5	–
Pz-Val-Val-Pro-Leu-OH (2) (peptide)	–	192
